Laboratory results published in the supplement of paper PMC9112550, “Optimization of the antimicrobial peptide Bac7 by deep mutational scanning” (BMC Biology, 2022).

System: Escherichia coli TOP10
Test: shrunken log2 fold change of peptide-encoding DNA abundance (4.5 h post-induction vs induction); higher = less antimicrobial activity (less host growth inhibition)
Settings: time post-induction: 4.5 h; library: site-saturation at positions 5, 18, 19, 20
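Note: peptides expressed intracellularly from a pBAD plasmid library in pooled LB shake-flask culture, induced with 0.3% L-arabinose, DNA abundance read by NGS, three biological replicates, DESeq2 with apeglm shrinkage.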

Row | Sequence | shrunken log2 fold change
1 | RRIRQRPPRLPRPRPRPNNHPRP | -0.71
2 | RRIRFRPPRLPRPRPRPEKFPRP | 0.012
3 | RRIRLRPPRLPRPRPRPLMNPRP | -0.253
4 | RRIRRRPPRLPRPRPRPGTFPRP | -0.578
5 | RRIRNRPPRLPRPRPRPPGLPRP | 0.46
6 | RRIRERPPRLPRPRPRPEPNPRP | 0.366
7 | RRIRARPPRLPRPRPRPLVPPRP | 0.125
8 | RRIRDRPPRLPRPRPRPSTSPRP | -0.115
9 | RRIRARPPRLPRPRPRPTVLPRP | 0.106
10 | RRIRGRPPRLPRPRPRPNKVPRP | 0.0962
11 | RRIRKRPPRLPRPRPRPSSCPRP | 0.31
12 | RRIRTRPPRLPRPRPRPPVKPRP | 0.385
13 | RRIRDRPPRLPRPRPRPNNYPRP | -0.542
14 | RRIRPRPPRLPRPRPRPKWLPRP | 0.198
15 | RRIRRRPPRLPRPRPRPNHCPRP | -0.142
16 | RRIRGRPPRLPRPRPRPVRWPRP | 0.965
17 | RRIRIRPPRLPRPRPRPAFSPRP | -0.155
18 | RRIRCRPPRLPRPRPRPTRSPRP | 0.643
19 | RRIRYRPPRLPRPRPRPIYAPRP | -0.461
20 | RRIRWRPPRLPRPRPRPTPAPRP | 0.584
21 | RRIRRRPPRLPRPRPRPCVQPRP | 0.171
22 | RRIRPRPPRLPRPRPRPDCGPRP | 0.093
23 | RRIRVRPPRLPRPRPRPHYMPRP | -1.03
24 | RRIRYRPPRLPRPRPRPGFKPRP | -0.579
25 | RRIRFRPPRLPRPRPRPPKNPRP | 0.541

Row | Sequence | shrunken log2 fold change
26 | RRIRYRPPRLPRPRPRPANVPRP | -0.00291
27 | RRIRFRPPRLPRPRPRPMFAPRP | 0.0307
28 | RRIRNRPPRLPRPRPRPQTFPRP | -0.0594
29 | RRIRHRPPRLPRPRPRPWMLPRP | -0.0885
30 | RRIRRRPPRLPRPRPRPFELPRP | -0.249
31 | RRIRNRPPRLPRPRPRPCCNPRP | -0.432
32 | RRIRARPPRLPRPRPRPTGEPRP | 0.0455
33 | RRIRCRPPRLPRPRPRPNSLPRP | -0.0801
34 | RRIRFRPPRLPRPRPRPLPNPRP | 0.184
35 | RRIRTRPPRLPRPRPRPHIIPRP | -0.0938
36 | RRIRFRPPRLPRPRPRPWKQPRP | -0.469
37 | RRIRPRPPRLPRPRPRPHHYPRP | -0.37
38 | RRIRLRPPRLPRPRPRPFHSPRP | -0.177
39 | RRIRARPPRLPRPRPRPMLMPRP | 0.044
40 | RRIRHRPPRLPRPRPRPPWEPRP | 0.193
41 | RRIRTRPPRLPRPRPRPMAYPRP | 0.0358
42 | RRIRNRPPRLPRPRPRPGYFPRP | -0.541
43 | RRIRSRPPRLPRPRPRPPAFPRP | -0.00342
44 | RRIRMRPPRLPRPRPRPKMPPRP | 0.493
45 | RRIRARPPRLPRPRPRPCVMPRP | -0.0813
46 | RRIRKRPPRLPRPRPRPMSNPRP | -0.00773
47 | RRIRTRPPRLPRPRPRPVCRPRP | 0.0309
48 | RRIRCRPPRLPRPRPRPPQTPRP | 0.665
49 | RRIRHRPPRLPRPRPRPRNKPRP | -0.2
50 | RRIRFRPPRLPRPRPRPTCCPRP | -0.0828

Row | Sequence | shrunken log2 fold change
51 | RRIRARPPRLPRPRPRPCLQPRP | -0.0914
52 | RRIRARPPRLPRPRPRPKENPRP | 0.379
53 | RRIRTRPPRLPRPRPRPECAPRP | 0.459
54 | RRIRVRPPRLPRPRPRPECKPRP | 0.0339
55 | RRIRHRPPRLPRPRPRPNHIPRP | -0.844
56 | RRIRVRPPRLPRPRPRPPVIPRP | -0.101
57 | RRIRERPPRLPRPRPRPRWAPRP | 0.425
58 | RRIRCRPPRLPRPRPRPAQIPRP | 0.00931
59 | RRIRNRPPRLPRPRPRPIFLPRP | -0.182
60 | RRIRQRPPRLPRPRPRPDILPRP | -0.0607
61 | RRIRWRPPRLPRPRPRPHMIPRP | -0.219
62 | RRIRCRPPRLPRPRPRPVSFPRP | -0.228
63 | RRIRVRPPRLPRPRPRPSLIPRP | -0.238
64 | RRIRTRPPRLPRPRPRPWLTPRP | -0.0866
65 | RRIRSRPPRLPRPRPRPCYVPRP | -0.338
66 | RRIRTRPPRLPRPRPRPFSWPRP | -0.294
67 | RRIRVRPPRLPRPRPRPLVWPRP | 0.115
68 | RRIRCRPPRLPRPRPRPCNSPRP | -0.0476
69 | RRIRIRPPRLPRPRPRPNASPRP | 0.109
70 | RRIRTRPPRLPRPRPRPCSMPRP | -0.179
71 | RRIRFRPPRLPRPRPRPTDEPRP | 0.00361
72 | RRIRYRPPRLPRPRPRPMMKPRP | -0.0161
73 | RRIRERPPRLPRPRPRPMNQPRP | -0.67
74 | RRIRQRPPRLPRPRPRPLYFPRP | -0.623
75 | RRIRSRPPRLPRPRPRPWADPRP | -0.307

Row | Sequence | shrunken log2 fold change
76 | RRIRGRPPRLPRPRPRPEEPPRP | 0.106
77 | RRIRDRPPRLPRPRPRPRYEPRP | 0.223
78 | RRIRMRPPRLPRPRPRPKYPPRP | -0.00805
79 | RRIRGRPPRLPRPRPRPTSAPRP | 0.855
80 | RRIRGRPPRLPRPRPRPDKEPRP | 0.208
81 | RRIRTRPPRLPRPRPRPHCGPRP | -0.0402
82 | RRIRGRPPRLPRPRPRPWSRPRP | -0.188
83 | RRIRERPPRLPRPRPRPFAIPRP | -0.122
84 | RRIRPRPPRLPRPRPRPTDYPRP | -0.132
85 | RRIRRRPPRLPRPRPRPDVDPRP | 0.505
86 | RRIRRRPPRLPRPRPRPFNHPRP | -0.275
87 | RRIRTRPPRLPRPRPRPKRTPRP | -0.132
88 | RRIRRRPPRLPRPRPRPQICPRP | -0.0654
89 | RRIRGRPPRLPRPRPRPYAKPRP | -0.0213
90 | RRIRMRPPRLPRPRPRPSQKPRP | 0.246
91 | RRIRARPPRLPRPRPRPDALPRP | 0.625
92 | RRIRKRPPRLPRPRPRPCGYPRP | 0.25
93 | RRIRDRPPRLPRPRPRPPSDPRP | 0.251
94 | RRIRHRPPRLPRPRPRPQPHPRP | -0.0753
95 | RRIRKRPPRLPRPRPRPCDHPRP | 0.0248
96 | RRIRRRPPRLPRPRPRPPWPPRP | 0.667
97 | RRIRARPPRLPRPRPRPVKTPRP | 0.232
98 | RRIRLRPPRLPRPRPRPDVFPRP | -0.165
99 | RRIRDRPPRLPRPRPRPIPSPRP | 0.0554
100 | RRIRWRPPRLPRPRPRPVGFPRP | 0.558

Row | Sequence | shrunken log2 fold change
101 | RRIRARPPRLPRPRPRPWHHPRP | -0.168
102 | RRIRMRPPRLPRPRPRPLLLPRP | -0.32
103 | RRIRTRPPRLPRPRPRPNKKPRP | -0.26
104 | RRIRARPPRLPRPRPRPGYGPRP | 0.277
105 | RRIRQRPPRLPRPRPRPEPVPRP | 0.0323
106 | RRIRLRPPRLPRPRPRPGRVPRP | 0.242
107 | RRIRQRPPRLPRPRPRPKCEPRP | 0.0276
108 | RRIRSRPPRLPRPRPRPMYVPRP | -0.84
109 | RRIRPRPPRLPRPRPRPYKVPRP | -0.338
110 | RRIRMRPPRLPRPRPRPPYCPRP | 0.0371
111 | RRIRHRPPRLPRPRPRPRDMPRP | 0.137
112 | RRIRHRPPRLPRPRPRPLDLPRP | 0.441
113 | RRIRTRPPRLPRPRPRPDETPRP | 0.0482
114 | RRIRLRPPRLPRPRPRPHGSPRP | -0.0692
115 | RRIRERPPRLPRPRPRPQWVPRP | 0.0428
116 | RRIRTRPPRLPRPRPRPDMKPRP | -0.0377
117 | RRIRVRPPRLPRPRPRPSIPPRP | -0.52
118 | RRIRKRPPRLPRPRPRPADRPRP | 0.102
119 | RRIRLRPPRLPRPRPRPWQVPRP | 0.0253
120 | RRIRPRPPRLPRPRPRPDSCPRP | 0.0412
121 | RRIRQRPPRLPRPRPRPHCRPRP | 0.0105
122 | RRIRIRPPRLPRPRPRPLGGPRP | 0.00908
123 | RRIRNRPPRLPRPRPRPVGFPRP | 0.165
124 | RRIRTRPPRLPRPRPRPIEGPRP | -0.0197
125 | RRIRLRPPRLPRPRPRPHNRPRP | -0.205
